The values below are quoted from earlier work in patent US20070299244A1, “Liposome allowing liposome-entrapped substance to escape from endosome” (Japan Science and Technology Agency, priority 2005, published 2007).

Where two headings read alike, the source gives them in different places.

Consider “GALA: synthetic peptide comprising the amino acid sequence represented by SEQ ID NO:1 (AALAELAEALAEALHEALAEALAEALAAEW; Designed peptide called “GALA”)”, for which the “Proportion of α helix structures” value runs as follows: (pH 5.0) “about 70%”; (pH 7.4) “about 20%”.
